Data on 13 molecules can be found in patent US20200123233A1.

Holding throughout (experiment): cell-based or functional assay
In assay [1] the target is Rabies virus glycoprotein G, strain CVS-11 (Challenge Virus Standard-11, ATCC VR 959) (Rabies virus, strain CVS-11).
Assay [2] addresses Rabies virus glycoprotein G, Challenge Virus Standard (CVS)-11 strain (Rabies virus, strain CVS-11 (genotype 1 Lyssavirus)) (UniProt O92284).
The target of assay [3] is Rabies virus glycoprotein G, ERA strain (attenuated vaccine strain, ATCC VR332) (Rabies virus, ERA strain (genotype 1 lyssavirus)) (UniProt P03524).
Chain of Rabies virus glycoprotein G, ERA strain (attenuated vaccine strain, ATCC VR332) (Rabies virus, ERA strain (genotype 1 lyssavirus)) (P03524 20-524 limits assumed): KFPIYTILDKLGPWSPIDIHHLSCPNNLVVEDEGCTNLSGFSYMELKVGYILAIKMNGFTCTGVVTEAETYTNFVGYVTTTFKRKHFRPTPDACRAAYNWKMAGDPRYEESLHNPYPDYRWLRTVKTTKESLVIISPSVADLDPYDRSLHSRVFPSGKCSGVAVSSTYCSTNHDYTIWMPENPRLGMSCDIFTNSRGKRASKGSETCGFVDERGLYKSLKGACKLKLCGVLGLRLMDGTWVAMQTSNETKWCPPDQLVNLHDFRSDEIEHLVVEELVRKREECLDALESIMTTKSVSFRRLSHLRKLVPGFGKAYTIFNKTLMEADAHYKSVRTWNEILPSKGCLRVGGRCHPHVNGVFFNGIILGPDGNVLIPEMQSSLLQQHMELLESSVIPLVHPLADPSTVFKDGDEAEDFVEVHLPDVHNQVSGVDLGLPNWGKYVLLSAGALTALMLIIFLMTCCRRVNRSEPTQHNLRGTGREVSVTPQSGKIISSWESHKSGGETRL

Chain of Rabies virus glycoprotein G, Challenge Virus Standard (CVS)-11 strain (Rabies virus, strain CVS-11 (genotype 1 Lyssavirus)) (O92284 20-524 limits assumed): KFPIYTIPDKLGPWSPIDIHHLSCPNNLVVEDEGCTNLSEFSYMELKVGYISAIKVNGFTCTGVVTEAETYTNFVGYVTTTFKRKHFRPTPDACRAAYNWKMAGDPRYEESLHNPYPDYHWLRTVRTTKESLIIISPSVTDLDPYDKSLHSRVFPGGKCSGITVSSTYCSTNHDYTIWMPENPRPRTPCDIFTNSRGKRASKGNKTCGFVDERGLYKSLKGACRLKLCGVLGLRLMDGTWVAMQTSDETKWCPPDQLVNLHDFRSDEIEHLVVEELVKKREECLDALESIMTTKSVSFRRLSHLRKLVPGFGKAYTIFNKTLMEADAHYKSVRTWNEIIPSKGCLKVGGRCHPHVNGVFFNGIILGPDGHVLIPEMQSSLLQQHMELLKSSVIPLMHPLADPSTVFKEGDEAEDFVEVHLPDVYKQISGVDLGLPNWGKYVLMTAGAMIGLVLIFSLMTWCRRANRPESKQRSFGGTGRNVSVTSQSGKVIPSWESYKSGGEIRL

B1: 213-H7 15GS 213-H7 (VHH)
chain: EVQLVESGGGLVQAGGSLRLSCAASGRTLSSYRMGWFRQAPGKEREFISTISWNGRSTYYADSVKGRFIFSEDNAKNTVYLQMNSLKPEDTAVYYCAAALIGGYYSDVDAWSYWGPGTQVTVSSGGGGSGGGGSGGGGSEVQLVESGGGLVQAGGSLRLSCAASGRTLSSYRMGWFRQAPGKEREFISTISWNGRSTYYADSVKGRFIFSEDNAKNTVYLQMNSLKPEDTAVYYCAAALIGGYYSDVDAWSYWGPGTQVTVSS
In assay [1], B1 showed a CVS neutralizing antibody titre (RFFIT): IU/mg of 549 IU/mg, a CVS neutralizing antibody titre (RFFIT): IU/ml of 412 IU/ml, a CVS neutralizing antibody titre (RFFIT): IU/nM of 15.4 IU/nM and a CVS neutralizing antibody titre (RFFIT): nM IC50 of 2.09 nM. The molecule further displayed a Potency (IU/nM) increase versus monovalent in assay [1] of 34.2 fold.

B2: 214-E8 15GS 214-E8 (VHH)
chain: EVQLVESGGGSVQAGGSLRLSCAASGGTFNPYVMAWFRQAPGNEREFVARIRWSGGDAYYDDSVKGRFAITRDAAKNTVHLQMNSLKPEDTAVYYCAAATYGYGSYTYGGSYDLWGQGTQVTVSSGGGGSGGGGSGGGGSEVQLVESGGGSVQAGGSLRLSCAASGGTFNPYVMAWFRQAPGNEREFVARIRWSGGDAYYDDSVKGRFAITRDAAKNTVHLQMNSLKPEDTAVYYCAAATYGYGSYTYGGSYDLWGQGTQVTVSS
B2: in assay [1], the CVS neutralizing antibody titre (RFFIT): IU/mg was determined as 349 IU/mg, the CVS neutralizing antibody titre (RFFIT): IU/ml worked out at 454 IU/ml, the CVS neutralizing antibody titre (RFFIT): IU/nM turned out to be 9.78 IU/nM and the CVS neutralizing antibody titre (RFFIT): nM IC50 was 3.28 nM. Moreover, in assay [1], the Potency (IU/nM) increase versus monovalent came out at 31.5 fold.

B3: LG213B7 (VHH)
VHH: EVQLVESGGGLVQAGGSLRLSCTVSGDTFDNSAAGWYRATSETQRELVARIRSSGSTNYADSVKGRFTVSRDNAKNTVYLQMNSLKPEDTAVYYCNVVSYGEYFWGKGTLVTVSS
For B3, in assay [2], the CVS-11 neutralizing antibody titer (RFFIT), IU/mg was 7.38 IU/mg; the CVS-11 neutralizing antibody titer (RFFIT), IU/ml was determined as 4.87 IU/ml; the CVS-11 neutralizing antibody titer (RFFIT), IU/µM came to 0.11 IU/µM; the CVS-11 neutralizing antibody titer (RFFIT), nM IC50 is 316 nM. Further, in assay [3], the ERA neutralizing antibody titer (RFFIT): EU/mg worked out at 8.35 EU/mg, the ERA neutralizing antibody titer (RFFIT): EU/ml came to 5.51 EU/ml, the ERA neutralizing antibody titer (RFFIT): EU/µM stood at 0.12 EU/µM and the ERA neutralizing antibody titer (RFFIT): nM IC50 was determined as 268 nM.

B4: LG213D7 (VHH)
VHH: EVQLVESGGGLVQAGGSLRLSCTVSGDTFDNSAAGWYRATSETQRELVARIRSSGSTNYADSVKGRFTVSRDNAKNTVYLQMNSLKPEDTAVYYCNVVSYGEYFWGKGTLVTVSS
In assay [2], B4 gave a CVS-11 neutralizing antibody titer (RFFIT), IU/mg of 7.61 IU/mg; a CVS-11 neutralizing antibody titer (RFFIT), IU/ml of 5.1 IU/ml; a CVS-11 neutralizing antibody titer (RFFIT), IU/µM of 0.11 IU/µM; a CVS-11 neutralizing antibody titer (RFFIT), nM IC50 of 305 nM. In assay [3], this molecule returned an ERA neutralizing antibody titer (RFFIT): EU/mg of 8.91 EU/mg, an ERA neutralizing antibody titer (RFFIT): EU/ml of 5.97 EU/ml, an ERA neutralizing antibody titer (RFFIT): EU/µM of 0.13 EU/µM and an ERA neutralizing antibody titer (RFFIT): nM IC50 of 251 nM.

B5: LG213D6 (VHH)
VHH: EVQLVESGGGLVQPGGSLRLSCAASGFTFGDSDMSWVRQAPGEGPEWVAGINSGGGSTVYADSVKGRFTISRDNAKNMLYLQMNSLKPEDTAVYLCAQGLMAEVTAGYWGQGTQVTVSS
With B5, in assay [2], the CVS-11 neutralizing antibody titer (RFFIT), IU/mg was less than 0.48 IU/mg; the CVS-11 neutralizing antibody titer (RFFIT), IU/ml is less than 0.5 IU/ml; the CVS-11 neutralizing antibody titer (RFFIT), IU/µM was less than 0.01 IU/µM; the CVS-11 neutralizing antibody titer (RFFIT), nM IC50 was greater than 7820 nM. Moreover, in assay [3], the ERA neutralizing antibody titer (RFFIT): EU/mg was less than 0.48 EU/mg, the ERA neutralizing antibody titer (RFFIT): EU/ml is less than 0.5 EU/ml, the ERA neutralizing antibody titer (RFFIT): EU/µM is less than 0.01 EU/µM and the ERA neutralizing antibody titer (RFFIT): nM IC50 was greater than 7820 nM.

B6: LG212A2 (VHH)
VHH: EVQLVESGGGLVQAGGSLRLSCAASGRTFDTYFVGWFRQAPGKERDFVAAISWSGDRTFYADSVKGRFTISRDNAKNTEYLQMNSLKPEDTAVYYCAAREYGRLYSDSEAYDYWGQGTQVTVSS
B6: in assay [2], the CVS-11 neutralizing antibody titer (RFFIT), IU/mg is 1.72 IU/mg; the CVS-11 neutralizing antibody titer (RFFIT), IU/ml worked out at 1.62 IU/ml; the CVS-11 neutralizing antibody titer (RFFIT), IU/µM was 0.03 IU/µM; the CVS-11 neutralizing antibody titer (RFFIT), nM IC50 was 1340 nM. In assay [3], this molecule came in with an ERA neutralizing antibody titer (RFFIT): EU/mg of 0.55 EU/mg, an ERA neutralizing antibody titer (RFFIT): EU/ml of 0.52 EU/ml, an ERA neutralizing antibody titer (RFFIT): EU/µM of 0.01 EU/µM and an ERA neutralizing antibody titer (RFFIT): nM IC50 of 3940 nM.

B7: LG191E4 (VHH)
VHH: EVQLVESGGGLVQAGGSLRLSCAASGPTFSADTMGWFRQAPGKEREFVATIPWSGGIAYYSDSVKGRFTMSRDNAKNTVDLQMNSLKPEDTALYYCAGSSRIYIYSDSLSERSYDYWGQGTQVTVSS
As for B7, in assay [2], the CVS-11 neutralizing antibody titer (RFFIT), IU/mg was less than 0.63 IU/mg; the CVS-11 neutralizing antibody titer (RFFIT), IU/ml is less than 0.5 IU/ml; the CVS-11 neutralizing antibody titer (RFFIT), IU/µM is less than 0.01 IU/µM; the CVS-11 neutralizing antibody titer (RFFIT), nM IC50 was greater than 5960 nM. In assay [3], this molecule displayed an ERA neutralizing antibody titer (RFFIT): EU/mg of less than 0.63 EU/mg, an ERA neutralizing antibody titer (RFFIT): EU/ml of less than 0.5 EU/ml, an ERA neutralizing antibody titer (RFFIT): EU/µM of less than 0.01 EU/µM and an ERA neutralizing antibody titer (RFFIT): nM IC50 greater than 5960 nM.

B8: 213-E6 5GS 213-E6 (VHH)
chain: EVQLVESGGGLVQAGASLRLSCAASGSTLSRYGVGWFRQAPGKERELVASVDWSGSRTYYADSVKGRFTISRDNAKNTGYLQMNSLKPDDTAVYYCAADSSVVPGIEKYDDWGLGTQVTVSSGGGGSEVQLVESGGGLVQAGASLRLSCAASGSTLSRYGVGWFRQAPGKERELVASVDWSGSRTYYADSVKGRFTISRDNAKNTGYLQMNSLKPDDTAVYYCAADSSVVPGIEKYDDWGLGTQVTVSS
In assay [1], B8 showed a CVS neutralizing antibody titre (RFFIT): IU/mg of 1300 IU/mg, a CVS neutralizing antibody titre (RFFIT): IU/ml of 1290 IU/ml, a CVS neutralizing antibody titre (RFFIT): IU/nM of 36 IU/nM and a CVS neutralizing antibody titre (RFFIT): nM IC50 of 0.88 nM. Moreover, the Potency (IU/nM) increase versus monovalent in assay [1] turned out to be 27.7 fold.

B9: LG192C4 (VHH)
VHH: EVQLVESGGGLVQAGGSLRLSCEASGRTFSSYAMVGWFRQAPGKEREFVAAVTRWSGARTVYADSVKGRFTISRDNAENTVYLQMNSLKPEDTAVYTCAADSTNRNSGAVYYSWAYDYWGQGTQVTVSS
For B9, in assay [2], the CVS-11 neutralizing antibody titer (RFFIT), IU/mg is less than 0.63 IU/mg; the CVS-11 neutralizing antibody titer (RFFIT), IU/ml was less than 0.5 IU/ml; the CVS-11 neutralizing antibody titer (RFFIT), IU/µM is less than 0.01 IU/µM; the CVS-11 neutralizing antibody titer (RFFIT), nM IC50 is greater than 5880 nM. Also, in assay [3], the ERA neutralizing antibody titer (RFFIT): EU/mg was less than 0.63 EU/mg, the ERA neutralizing antibody titer (RFFIT): EU/ml was less than 0.5 EU/ml, the ERA neutralizing antibody titer (RFFIT): EU/µM is less than 0.01 EU/µM and the ERA neutralizing antibody titer (RFFIT): nM IC50 was greater than 5880 nM.

B10: LG214C10 (VHH)
VHH: EVQLVESGGGLVQPGGSLRLSCAASGFIFGSYDMSWVRQAPGKGPEWVSGINSGGGSTGYADSVKGRFTISRDNAKNTLYLQMNSLKPEDTAVYYCSTNLYPTTDDVWGQGTQVTVSS
In assay [2], B10 showed a CVS-11 neutralizing antibody titer (RFFIT), IU/mg of 10.6 IU/mg; a CVS-11 neutralizing antibody titer (RFFIT), IU/ml of 4.24 IU/ml; a CVS-11 neutralizing antibody titer (RFFIT), IU/µM of 0.16 IU/µM; a CVS-11 neutralizing antibody titer (RFFIT), nM IC50 of 220 nM. Also, in assay [3], the ERA neutralizing antibody titer (RFFIT): EU/mg came out at 35.1 EU/mg, the ERA neutralizing antibody titer (RFFIT): EU/ml worked out at 14 EU/ml, the ERA neutralizing antibody titer (RFFIT): EU/µM amounted to 0.52 EU/µM and the ERA neutralizing antibody titer (RFFIT): nM IC50 is 63.7 nM.

B11: 212-C12 15GS 212-C12 (VHH)
chain: EVQLVESGGGLVQPGGSLRLSCAASGFTFGSSDMSWVRQAPGKGPEWVSGINSGGGRTLYADSVKGRFTISRDNAKNTLYLQMNSLKSEDTAVYYCATDLYGSSWYTDYWSQGTQVTVSSGGGGSGGGGSGGGGSEVQLVESGGGLVQPGGSLRLSCAASGFTFGSSDMSWVRQAPGKGPEWVSGINSGGGRTLYADSVKGRFTISRDNAKNTLYLQMNSLKSEDTAVYYCATDLYGSSWYTDYWSQGTQVTVSS
For the molecule B11, in assay [1], the CVS neutralizing antibody titre (RFFIT): IU/mg worked out at 330 IU/mg, the CVS neutralizing antibody titre (RFFIT): IU/ml was determined as 330 IU/ml, the CVS neutralizing antibody titre (RFFIT): IU/nM is 8.57 IU/nM and the CVS neutralizing antibody titre (RFFIT): nM IC50 was 3.74 nM. The Potency (IU/nM) increase versus monovalent in assay [1] came out at 4.6 fold.

B12: LG214A8 (VHH)
VHH: EVQLVKSGGGSVQAGGSLRLSCAASGGTFNPYVMAWFRQAPGNEREFVARIRWSGGDAYYDDSVKGRFAITRDAAKNTVHLQMNSLKPEDTAVYYCAAATYGYGSYTYGGSYDLWGQGTQVTVSS
With B12, in assay [2], the CVS-11 neutralizing antibody titer (RFFIT), IU/mg was determined as 7.93 IU/mg; the CVS-11 neutralizing antibody titer (RFFIT), IU/ml worked out at 9.12 IU/ml; the CVS-11 neutralizing antibody titer (RFFIT), IU/µM worked out at 0.12 IU/µM; the CVS-11 neutralizing antibody titer (RFFIT), nM IC50 was determined as 293 nM. In assay [3], this molecule displayed an ERA neutralizing antibody titer (RFFIT): EU/mg of less than 0.43 EU/mg, an ERA neutralizing antibody titer (RFFIT): EU/ml of less than 0.5 EU/ml, an ERA neutralizing antibody titer (RFFIT): EU/µM of less than 0.01 EU/µM and an ERA neutralizing antibody titer (RFFIT): nM IC50 greater than 8560 nM.

B13: LG214F8 (VHH)
VHH: EVQLVESGGDLVQAGGSLRLSCVASGSTYSINAMGWYRQAPGKLRELVAAFRTGGSTDYADSVKGRFTISRDTAKNTVYLQMNSLKPEDTAVYYCNAEVIYYPYDYWGQGTQVTVSS
Take B13: in assay [2], the CVS-11 neutralizing antibody titer (RFFIT), IU/mg was 7.19 IU/mg; the CVS-11 neutralizing antibody titer (RFFIT), IU/ml is 1.15 IU/ml; the CVS-11 neutralizing antibody titer (RFFIT), IU/µM was 0.11 IU/µM; the CVS-11 neutralizing antibody titer (RFFIT), nM IC50 came to 325 nM. For the same molecule, in assay [3], the ERA neutralizing antibody titer (RFFIT): EU/mg amounted to 23.8 EU/mg, the ERA neutralizing antibody titer (RFFIT): EU/ml was found to be 3.81 EU/ml, the ERA neutralizing antibody titer (RFFIT): EU/µM worked out at 0.36 EU/µM and the ERA neutralizing antibody titer (RFFIT): nM IC50 stood at 94 nM.
